According to article PMC9101815, “Extracellular Matrix Biomimetic Hydrogels, Encapsulated with Stromal Cell-Derived Factor 1, Improve the Composition of Foetal Tissue Grafts in a Rodent Model of Parkinson’s Disease” (International Journal of Molecular Sciences, 2022):
Ends that are not written are not given here. * marks the point of attachment. Fmoc = O=C(OCC1c2ccccc2-c2ccccc21)*

Molecular target: the molecule itself
Test: FTIR + circular dichroism + transmission electron microscopy; peptide alone; gelation by pH switch, 20 mg/mL stock; self-assembly under physiological conditions (pH 7.4) into nanofibrils and a hydrogel

B1: Fmoc-DDIKVAV self-assembling peptide (peptide)
peptide: Fmoc-DDIKVAV
notes: Whole peptide as printed: DDIKVAV with N-terminal Fmoc; Assembles into nanofibres and a hydrogel; also called SAP; IKVAV SAP; source: solid phase peptide synthesis
Question: Does B1 bind?
Answer: binds
